Experimental findings from publication PMC2186201 are described below.

The target of this assay is human C3bi, bound to erythrocytes (EC3bi) (human) (UniProt P01024). As to the kind of experiment: conglutinin-dependent hemagglutination.

B1: bovine conglutinin (natural protein)
chain: AEMTTFSQKILANACTLVMCSPLESGLPGHDGQDGRECPHGEKGDPGSPGPAGRAGRPGWVGPIGPKGDNGFVGEPGPKGDTGPRGPPGMPGPAGREGPSGKQGSMGPPGTPGPKGETGPKGGVGAPGIQGFPGPSGLKGEKGAPGETGAPGRAGVTGPSGAIGPQGPSGARGPPGLKGDRGDPGETGAKGESGLAEVNALKQRVTILDGHLRRFQNAFSQYKKAVLFPDGQAVGEKIFKTAGAVKSYSDAEQLCREAKGQLASPRSSAENEAVTQMVRAQEKNAYLSMNDISTEGRFTYPTGEILVYSNWADGEPNNSDEGQPENCVEIFPDGKWNDVPCSKQLLVICEF
For B1, the conglutination (percent of activity) was found to be 100%.
